Reference: PMC4450660, “Biochemical and Structural Characterization of Enolase from Chloroflexus aurantiacus: Evidence for a Thermophilic Origin” (Frontiers in Bioengineering and Biotechnology, 2015)

Substrate: O=C(O)[C@@H](CO)OP(=O)(O)O
Test: purified protein
Format: biochemical, Chloroflexus aurantiacus
Conditions: 25 °C, pH 6.5, 50 mM Bis-Tris propane, 5 mM MgCl2, crystal structure with 2-PGA in active site, open conformation

B1: EnoCa (enolase-1 from Chloroflexus aurantiacus) (Chloroflexus aurantiacus J-10-fl) (protein)
chain: MSTLIEAIVAREVLDSRGNPTIEVDVRLESGDVGRAIVPSGASTGAHEALELRDGDKSRYNGKGVLKAVQAVNEDIAEALIGFDAADQIALDQELIALDGTPNKSKLGANAILGVSLAAAKAAAAAFGLPLYRYLGGVYAHVLPVPMMNIMNGGQHATNSTDFQEFMIMPVGAESFREGLRWGAEIYHMLKKVIHDRGFSTTVGDEGGFAPSLPTNDAPLQLIMEAIEKAGYRPGEQIVIALDPATTEIFEDGKYHLKREGRSLSSAEMVDYWVDLVNRYPIISLEDGLAEDDWEGWALLRAKLGDRVQLVGDDFLVTNVQRLQRAIEAKAANSILIKLNQIGSLTETLSAIQLAQRSGWTAVVSHRSGESEDVTIADLVVATNAGQIKTGAPARTDRIAKYNQLLRIEEELGSAARYAGRSAFKV
notes: native protein purified from C. aurantiacus cells, untagged; homodimer, subunit ~46 kDa, total ~92-96 kDa
  Km: 160 ± 10 µM
